Patent US20230303994

Protein | Activity PPI cleavage (pre-pro-human insulin) | Selectivity (pre-pro-human insulin) [%] | Purity Insulin Glargine (pre-pro-insulin glargine) [area %] | Yield (pre-pro-insulin glargine) [%] | desArg (pre-pro-insulin glargine) [area %] | desThr (pre-pro-insulin glargine) [area %]
trypsin variant SEQ ID NO: 89 (protein) IVGGYTCAANSIPYQVSLNSGSHRCGGSLINSQWVVSAAHCYKPRIQVRLGEHNIHVLEGNEQFINAAKIITHPNFNPNTLDNDIMLIKLSSPATLNSHVATVSLPTSCAAAGTECLISGWGNTASSGSSMPSLLQCLKAPVLSDSSCKSSYPGQITGNMICVGFLEGGKDACQGDSGGPVVCNGQLQGIVSSGYGCAQKNKPGVYTKVCNYVNWIQQTIAAN | yes | >90 | 88.1 | > 90 | 0.5 | 1.2
trypsin variant SEQ ID NO: 97 (protein) IVGGYTCAANSIPYQVSLNSGSHRCGGSLINSQWVVSAAHCYKPRIQVRLGEHNIHVLEGNEQFINAAKIITHPNFNPNTLDNDIMLIKLSSPATLNSAVATVSLPTSCAAAGTECLISGWGNTASSGSSMPSLLQCLKAPVLSDSSCKSSYPGQITGNMICVGFLEGGADACQGDSGGPVVCNGQLQGIVSSGYGCAQKNKPGVYTKVCNYVNWIQQTIAAN | yes | >90 | 89.4 | > 90 | < 0.5 | 1.2
trypsin variant SEQ ID NO: 98 (protein) IVGGYTCAANSIPYQVSLNSGSHRCGGSLINSQWVVSAAHCYKPRIQVRLGEHNIHVLEGNEQFINAAKIITHPNFNPNTLDNDIMLIKLSSPATLNSAVATVSLPTSCAAAGTECLISGWGNTASSGSSMPSLLQCLKAPVLSDSSCKSSYPGQITGNMICVGFLEGGADSCQGDSGGPVVCNGQLQGIVSSGYGCAQKNKPGVYTKVCNYVNWIQQTIAAN | yes | >90 | 89.4 | > 90 | 0.9 | 2.7
trypsin variant SEQ ID NO: 103 (protein) IVGGYTCAANSIPYQVSLNSGSHRCGGSLINSQWVVSAAHCYKPRIQVRLGEHNIHVLEGNEQFINAAKIITHPNFNPNTLDNDIMLIKLSSPATLNSHVATVSLPTSCAAAGTECLISGWGNTSSSGSSMPSLLQCLKAPVLSDSSCKSSYPGQITGNMICVGFLEGGADSCQGDSGGPVVCNGQLQGIVSSGYGCAQKNKPGVYTKVCNYVNWIQQTIAAN | yes | >90 | 90.7 | > 90 | 0.9 | 1.4
trypsin variant SEQ ID NO: 94 (protein) IVGGYTCAANSIPYQVSLNSGSHRCGGSLINSQWVVSAAHCYKPRIQVRLGEHNIHVLEGNEQFINAAKIITHPNFNGNTLDNDIMLIKLSSPATLNSNVATVSLPRSCAAAGTECLISGWGNTCSSGSSMPSLLQCLKAPVLSDSSCKSSYPGQITGNMICVGFLEGGADACQGDSGGPVVCNGQLQGIVSSGYGCAQKNKPGVYTKVCNYVNWIQQTIAAN | yes | >90 | 85.2 | > 90 | 0.8 | 0.3
trypsin variant SEQ ID NO: 92 (protein) IVGGYTCAANSIPYQVSLNSGSHRCGGSLINSQWVVSAAHCYKPRIQVRLGEHNIHVLEGNEQFINAAKIITHPNFNPNTLDNDIMLIKLSSPATLNSAVATVSLPTSCAAAGTECLISGWGNTCSSGSSMPSLLQCLKAPVLSDSSCKSSYPGQITGNMICVGFLEGGKDACQGDSGGPVVCNGQLQGIVSSGYGCAQKNKPGVYTKVCNYVNWIQQTIAAN | yes | >90 | 88.1 | > 90 | 0.9 | 0.6
trypsin variant SEQ ID NO: 95 (protein) IVGGYTCAANSIPYQVSLNSGSHRCGGSLINSQWVVSAAHCYKPRIQVRLGEHNIHVLEGNEQFINAAKIITHPNFNPNTLDNDIMLIKLSSPATLNSHVATVSLPRSCAAAGTECLISGWGNTSSSGSSMPSLLQCLKAPVLSDSSCKSSYPGQITGNMICVGFLEGGADACQGDSGGPVVCNGQLQGIVSSGYGCAQKNKPGVYTKVCNYVNWIQQTIAAN | yes | >90 | 90 | > 90 | 1 | 0.6
trypsin variant SEQ ID NO: 96 (protein) IVGGYTCAANSIPYQVSLNSGSHRCGGSLINSQWVVSAAHCYKPRIQVRLGEHNIDVLEGNEQFINAAKIITHPNFNPNTLDNDIMLIKLSSPATLNSHVATVSLPRSCAAAGTECLISGWGNTSSSGSSMPSLLQCLKAPVLSDSSCKSSYPGQITGNMICVGFLEGGADACQGDSGGPVVCNGQLQGIVSSGYGCAQKNKPGVYTKVCNYVNWIQQTIAAN | yes | >90 | 78.7 | > 80 | 0.7 | 0.3
trypsin variant SEQ ID NO: 102 (protein) IVGGYTCAANSIPYQVSLNSGSHRCGGSLINSQWVVSAAHCYKPRIQVRLGEHNIHVLEGNEQFINAAKIITHPNFNPNTLDNDIMLIKLSSPATLNSHVATVSLPTSCAAAGTECLISGWGNTSSSGSSMPSLLQCLKAPVLSDSSCKSSYPGQITGNMICVGFLEGGADACQGDSGGPVVCNGQLQGIVSSGYGCAQKNKPGVYTKVCNYVNWIQQTIAAN | yes | >90 | 88.7 | > 90 | 0.4 | 1.2
trypsin variant SEQ ID NO: 93 (protein) IVGGYTCAANSIPYQVSLNSGSHRCGGSLINSQWVVSAAHCYKSRIQVRLGEHNIDVLEGNEQFINAAKIITHPNFNPNTLDNDIMLIKLSSPATLNSNVATVSLPTSCAAAGTECLISGWGNTCSSGSSMPSLLQCLKAPVLSDSSCKSSYPGQITGNMICVGFLEGGADACQGDSGGPVVCNGQLQGIVSSGYGCAQKNKPGVYTKVCNYVNWIQQTIAAN | yes | >90 | 71.3 | > 75 | 0.7 | 0.3
trypsin variant SEQ ID NO: 91 (protein) IVGGYTCAANSIPYQVSLNSGSHRCGGSLINSQWVVSAAHCYKPRIQVRLGEHNIHVLEGNEQFINAAKIITHPNFNPNTLDNDIMLIKLSSPATLNSAVATVSLPTSCAAAGTECLISGWGNTSSSGSSMPSLLQCLKAPVLSDSSCKSSYPGQITGNMICVGFLEGGKDACQGDSGGPVVCNGQLQGIVSSGYGCAQKNKPGVYTKVCNYVNWIQQTIAAN | yes | >90 | 86.8 | > 90 | 1 | 0.3
trypsin variant SEQ ID NO: 101 (protein) IVGGYTCAANSIPYQVSLNSGSHRCGGSLINSQWVVSAAHCYKSRIQVRLGEHNIHVLEGNEQFINAAKIITHPNFNPNTLDNDIMLIKLSSPATLNSNVATVSLPTSCAAAGTECLISGWGNTSSSGSSMPSLLQCLKAPVLSDSSCKSSYPGQITGNMICVGFLEGGADACQGDSGGPVVCNGQLQGIVSSGYGCAQKNKPGVYTKVCNYVNWIQQTIAAN | yes | >90 | 89.2 | > 90 | 1 | 0.4
trypsin variant SEQ ID NO: 104 (protein) IVGGYTCAANSIPYQVSLNSGSHRCGGSLINSQWVVSAAHCYKSRIQVRLGEHNIHVLEGNEQFINAAKIITHPNFNPNTLDNDIMLIKLSSPATLNSNVATVSLPTSCAAAGTECLISGWGNTCSSGSSMPSLLQCLKAPVLSDSSCKSSYPGQITGNMICVGFLEGGADACQGDSGGPVVCNGQLQGIVSSGYGCAQKNKPGVYTKVCNYVNWIQQTIAAN | yes | >90 | 89.3 | > 90 | 1.1 | 1
trypsin variant SEQ ID NO: 100 (protein) IVGGYTCAANSIPYQVSLNSGSHRCGGSLINSQWVVSAAHCYKPRIQVRLGEHNIDVLEGNEQFINAAKIITHPNFNPNTLDNDIMLIKLSSPATLNSHVATVSLPTSCAAAGTECLISGWGNTCSSGSSMPSLLQCLKAPVLSDSSCKSSYPGQITGNMICVGFLEGGADACQGDSGGPVVCNGQLQGIVSSGYGCAQKNKPGVYTKVCNYVNWIQQTIAAN | yes | >90 | 80 | > 80 | 0.7 | 0.3
trypsin variant SEQ ID NO: 11 (protein) IVGGYTCAANSIPYQVSLNSGSHRCGGSLINSQWVVSAAHCYKSRIQVRLGEHNIDVLEGNEQFINAAKIITHPNFNGNTLDNDIMLIKLSSPATLNSNVATVSLPRSCAAAGTECLISGWGNTKSSGSSYPSLLQCLKAPVLSDSSCKSSYPGQITGNMICVGFLEGGKDACQGDSGGPVVCNGQLQGIVSSGYGCAQKNKPGVYTKVCNYVNWIQQTIAAN | yes | >90 | 84.1 | > 90 | < 0.5 | 2.2
trypsin variant SEQ ID NO: 99 (protein) IVGGYTCAANSIPYQVSLNSGSHRCGGSLINSQWVVSAAHCYKSRIQVRLGEHNIHVLEGNEQFINAAKIITHPNFNPNTLDNDIMLIKLSSPATLNSNVATVSLPTSCAAAGTECLISGWGNTSSSGSSYPSLLQCLKAPVLSDSSCKSSYPGQITGNMICVGFLEGGADACQGDSGGPVVCNGQLQGIVSSGYGCAQKNKPGVYTKVCNYVNWIQQTIAAN | yes | >80 | 89.2 | > 90 | 0.9 | 1
trypsin variant SEQ ID NO: 90 (protein) IVGGYTCAANSIPYQVSLNSGSHRCGGSLINSQWVVSAAHCYKPRIQVRLGEHNIHVLEGNEQFINAAKIITHPNFNPNTLDNDIMLIKLSSPATLNSHVATVSLPTSCAAAGTECLISGWGNTASSGSSMPSLLQCLKAPVLSDSSCKSSYPGQITGNMICVGFLEGGKDSCQGDSGGPVVCNGQLQGIVSSGYGCAQKNKPGVYTKVCNYVNWIQQTIAAN | yes | >90 | 89.5 | > 90 | 0.9 | 0.2
